We go through six molecules from US20230174619A1 (published 2023).

Changes are numbered by the printed parent chain. Names and notes keep the numbering of the source.

In test [1] the target is T1, murine PD-1-Fc (murine, UniProt Q02242 25-167).
T1 construct: Surface-immobilized in the BLI assay; It differs from the selection antigen (murine PD-1 31-150, C83S, AviTag); also called murine PD-iFc; not shown: Fc portion
T1 sequence (looked up): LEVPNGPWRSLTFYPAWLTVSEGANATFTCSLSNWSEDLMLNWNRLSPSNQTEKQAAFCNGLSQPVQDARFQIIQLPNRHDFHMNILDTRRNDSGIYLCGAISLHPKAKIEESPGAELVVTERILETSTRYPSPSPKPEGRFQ
The test is described as follows: bio-layer interferometry (Octet), murine PD-1-Fc surface-immobilized, His-tagged PD-L1 domain. How it is done:
Amino acids are indicated and shown as sticks. (B) Structural alignment indicates an identical structural conformation. (C)-(E) Representative bio-layer interferometry sensograms for PD-L1 wt (C) and two indicated engineered PD-L1 variants (D, E). Raw data (thick lines) was fitted using 1:1 langmuir interaction model (thin lines).
(§1) Phage selections were performed using as an antigen recombinant murine PD-1 protein (amino acids 31-150) with C83S substitution fused to AviTag peptide, biotinylated in vivo and purified from E. coli. After a couple of selection rounds, binding of enriched phage clones were analyzed by ELISA and the selected PD-L1 variants were sequenced. In a competitive phage IC₅₀ ELISA, the 5 PD-L1 variants were examined for their binding properties by competing with 500 nM or 50 nM in solution with PD-1-Fc (FIG. 1).
Amino acid positions 54, 56, 63, 66, 68, 69, 76, 113, 115, and 121-125 were randomized. For the selected variants, dashes represent no amino acid change relative to the wild type sequence. Kd values for the interaction of the variants and murine PD-1 were obtained by bio-layer interferometry; n/a—not available. Table 2 indicates R113 because the original C113 of the murine sequence was substituted already prior to library construction, as indicated above.
(In general: Biolayer interferometry detects binding as a change in optical thickness at a sensor tip.)

Test [2] addresses T1, murine PD-1-Fc. The test is described as follows: bio-layer interferometry 'in similar experiments', dimeric Fc fusion (avidity). How it is done:
as §1
(§2) After expression and purification of the Fc fusion proteins, we obtained with one step purification on a protein A column, good purity and an average yield of 200 mg/L Expi293F culture (FIG. 4). In order to verify whether the purified protein is still binding the PD-1, we determined PD-1/PD-L1 affinities as before.

Test [3] deals with T1, murine PD-1-Fc. The test is described as follows: bio-layer interferometry, Fc fusions; reference wt Fc fusion.
The target in test [4] is T1, murine PD-1-Fc. The test is described as follows: bio-layer interferometry 'as before', dimeric Fc fusion (avidity). On the procedure:
as §1, §2

Test [5] has as its target T1, murine PD-1-Fc. The test is described as follows: bio-layer interferometry, monomeric variant 258 as retold in the text (Table 1 prints 2.17).
The target in test [6] is T1, murine PD-1-Fc. The test is described as follows: bio-layer interferometry (Octet), murine PD-1-Fc surface-immobilized; reference PD-L1 wt in the same format.

B1: PD-L1 wt, distal Ig-like domain of murine PD-L1 (amino acids 18-132) with C113R, His-tag fusion expressed in E. coli (ligand)
chain: AFTITAPKDLYVVEYGSNVTMECRFPVERELDLLALVVYWEKEDEQVIQFVAGEEDLKPQHSNFRGRASLPKDQLLKGNAALQITDVKLQDAGVYRCIISYGGADYKRITLKVNA
notes: also called unmodified PD-L1 wt; wt PD-L1; not shown: His-tag
B1 showed a Kd in the test with murine PD-1-Fc [1] of 66 nM.

B2: PD-L1 wt Fc fusion protein (Ig-like V-type domain of PD-L1 fused to human Fc), expressed in Expi293F (Fc fusion)
chain: B1 chain
notes: also called wt (200); wt protein; not shown: linker/hinge and human Fc
In the test with murine PD-1-Fc [2], B2 had a Kd of around 0.6 nM.

B3: PD-L1 variant 258 Fc fusion protein (Ig-like V-type domain fused to human Fc), expressed in Expi293F (Fc fusion)
chain: B1 chain with Y39S, P59F, I98L
notes: not shown: linker/hinge and human Fc
As to B3, in the test with murine PD-1-Fc [3], the “fold improved affinity against the wt Fc fusion” value was at most 8 fold. Moreover, the Kd with murine PD-1-Fc [4] stood at 0.077 nM.

B4: PD-L1 variant 258, distal Ig-like domain of murine PD-L1 (amino acids 18-132), His-tag fusion expressed in E. coli (ligand)
chain: B1 chain with Y39S, P59F, I98L
notes: not shown: His-tag
As for B4, the results for the Kd with murine PD-1-Fc [5] and in the test with murine PD-1-Fc [1] were 2.14 nM and 2.17 nM, respectively. In the test with murine PD-1-Fc [6], the “fold advantage in binding compared to PD-L1 wt” value is at most 30 fold.

B5: PD-L1 variant 214, distal Ig-like domain of murine PD-L1 (amino acids 18-132), His-tag fusion expressed in E. coli (ligand)
chain: B1 chain with V37L, Y39D, Q49R, V51E, A52S, P59H
notes: not shown: His-tag
For B5, the Kd in the test with murine PD-1-Fc [1] came out at 2.54 nM. In the test with murine PD-1-Fc [6], the “fold advantage in binding compared to PD-L1 wt” value is at most 30 fold.

B6: PD-L1 variant 214 Fc fusion protein (Ig-like V-type domain fused to human Fc), expressed in Expi293F (Fc fusion)
chain: B1 chain with V37L, Y39D, Q49R, V51E, A52S, P59H
notes: as for B3
In the case of B6, the “fold improved affinity against the wt Fc fusion” value in the test with murine PD-1-Fc [3] is at most 8 fold. For the same molecule, the Kd with murine PD-1-Fc [4] amounted to 0.088 nM.
